The values that follow come from PMC2583301 (The Journal of Biological Chemistry, 2008).

Test [1] concerns the target T1, H2A/H2B dimer (major type, wild type) (Xenopus laevis, UniProt P06897;P02281). The test can be described thus: other fluorescence titration.
The next test deals with H2A.Z/H2B dimer ( | Xenopus laevis, UniProt P0C0S5;P02281). The test can be described thus: other fluorescence titration.
For test [2], the target named is H2A refolded in the absence of H2B (Xenopus laevis, UniProt P06897 1-130). The test can be described thus: other fluorescence titration.
Another test deals with H3 alone (Xenopus laevis, UniProt P84233 1-136). The experiment in a line: other fluorescence titration.
Test [3] addresses T1, H2A/H2B dimer (major type, wild type). The experiment in a line: other fluorescence titration. The source holds these as a separate data set.
Test [4] has the same target. The experiment in a line: other fluorescence titration. This is another data set of the same source.
Test [5] shares this target. The test can be described thus: other fluorescence titration. The source holds these as a separate data set.
Test [6] has the same target. The experiment in a line: native gel or EMSA. In general terms: In EMSA bound probe runs differently from free probe, usually more slowly.

Residue numbers refer to the chain shown, from its start. Names may count otherwise. Read-outs that look alike come from different tables or passages of the source.

B1: yNap1 C200A/C249A/C272A labelled with Alexa dye at Cys-414 (yNap1m*) (natural protein)
chain: MSDPIRTKPKSSMQIDNAPTPHNTPASVLNPSYLKNGNPVRAQAQEQDDKIGTINEEDILANQPLLLQSIQDRLGSLVGQDSGYVGGLPKNVKEKLLSLKTLQSELFEVEKEFQVEMFELENKFLQKYKPIWEQRSRIISGQEQPKPEQIAKGQEIVESLNETELLVDEEEKAQNDSEEEQVKGIPSFWLTALENLPIVADTITDRDAEVLEYLQDIGLEYLTDGRPGFKLLFRFDSSANPFFTNDILAKTYFYQKELGYSGDFIYDHAEGAEISWKDNAHNVTVDLEMRKQRNKTTKQVRTIEKITPIESFFNFFDPPKIQNEDQDEELEEDLEERLALDYSIGEQLKDKLIPRAVDWFTGAALEFEFEEDEEEADEDEDEEEDDDHGLEDDDGESAEEQDDFAGRPEQAPECKQS
modifications: Alexa-546 or Alexa-488 on Cys-414
Consider B1, for which the Kd – broadly, the equilibrium constant for the complex coming apart – is 1.2 nM in test [1]; 7.4 nM in the test with H2A.Z/H2B dimer; 3.5 nM in test [2]; over 10000 nM with H3 alone; 7.8 nM in test [3]; 21.6 nM in test [4]. This molecule also registered a dissociation constant (Kd) in test [5] of 7.8 nM.

B2: yeast nucleosome assembly protein 1 (yNap1), wild type (natural protein)
chain: B1 chain with A200C, A249C, A272C
Consider B2, for which the binding result in test [6] is reported as “binds”.
